Test results from US20110294738A1, “PTHR1 RECEPTOR COMPOUNDS” (priority 2008, published 2011).
Where “and” joins values, the source holds several entries; their conditions need not be identical. Equal entries are not always repeated. * marks the point of attachment. Palmitoyl = CCCCCCCCCCCCCCCC(=O)*

B1: Compound 36 (peptide)
peptide: Palmitoyl-HSLIFMAFFSEKKYLWGFT-NH2
SMILES: CCCCCCCCCCCCCCCC(=O)N[C@@H](Cc1c[nH]cn1)C(=O)N[C@@H](CO)C(=O)N[C@@H](CC(C)C)C(=O)N[C@H](C(=O)N[C@@H](Cc1ccccc1)C(=O)N[C@@H](CCSC)C(=O)N[C@@H](C)C(=O)N[C@@H](Cc1ccccc1)C(=O)N[C@@H](Cc1ccccc1)C(=O)N[C@@H](CO)C(=O)N[C@@H](CCC(=O)O)C(=O)N[C@@H](CCCCN)C(=O)N[C@@H](CCCCN)C(=O)N[C@@H](Cc1ccc(O)cc1)C(=O)N[C@@H](CC(C)C)C(=O)N[C@@H](Cc1c[nH]c2ccccc12)C(=O)NCC(=O)N[C@@H](Cc1ccccc1)C(=O)N[C@H](C(N)=O)[C@@H](C)O)[C@@H](C)CC
B2: Compound 9 (peptide)
peptide: Palmitoyl-LAYFRRLHSTRNYI-NH2
SMILES: CCCCCCCCCCCCCCCC(=O)N[C@@H](CC(C)C)C(=O)N[C@@H](C)C(=O)N[C@@H](Cc1ccc(O)cc1)C(=O)N[C@@H](Cc1ccccc1)C(=O)N[C@@H](CCCNC(=N)N)C(=O)N[C@@H](CCCNC(=N)N)C(=O)N[C@@H](CC(C)C)C(=O)N[C@@H](Cc1c[nH]cn1)C(=O)N[C@@H](CO)C(=O)N[C@H](C(=O)N[C@@H](CCCNC(=N)N)C(=O)N[C@@H](CC(N)=O)C(=O)N[C@@H](Cc1ccc(O)cc1)C(=O)N[C@H](C(N)=O)[C@@H](C)CC)[C@@H](C)O
B3: Compound 1 (peptide)
peptide: Palmitoyl-RRLHSTRNYIHMH-NH2
SMILES: CCCCCCCCCCCCCCCC(=O)N[C@@H](CCCNC(=N)N)C(=O)N[C@@H](CCCNC(=N)N)C(=O)N[C@@H](CC(C)C)C(=O)N[C@@H](Cc1c[nH]cn1)C(=O)N[C@@H](CO)C(=O)N[C@H](C(=O)N[C@@H](CCCNC(=N)N)C(=O)N[C@@H](CC(N)=O)C(=O)N[C@@H](Cc1ccc(O)cc1)C(=O)N[C@H](C(=O)N[C@@H](Cc1c[nH]cn1)C(=O)N[C@@H](CCSC)C(=O)N[C@@H](Cc1c[nH]cn1)C(N)=O)[C@@H](C)CC)[C@@H](C)O
B4: Compound 35 (peptide)
peptide: Palmitoyl-YLHSLIFMAFFSEKKYLWGFT-NH2
SMILES: CCCCCCCCCCCCCCCC(=O)N[C@@H](Cc1ccc(O)cc1)C(=O)N[C@@H](CC(C)C)C(=O)N[C@@H](Cc1c[nH]cn1)C(=O)N[C@@H](CO)C(=O)N[C@@H](CC(C)C)C(=O)N[C@H](C(=O)N[C@@H](Cc1ccccc1)C(=O)N[C@@H](CCSC)C(=O)N[C@@H](C)C(=O)N[C@@H](Cc1ccccc1)C(=O)N[C@@H](Cc1ccccc1)C(=O)N[C@@H](CO)C(=O)N[C@@H](CCC(=O)O)C(=O)N[C@@H](CCCCN)C(=O)N[C@@H](CCCCN)C(=O)N[C@@H](Cc1ccc(O)cc1)C(=O)N[C@@H](CC(C)C)C(=O)N[C@@H](Cc1c[nH]c2ccccc12)C(=O)NCC(=O)N[C@@H](Cc1ccccc1)C(=O)N[C@H](C(N)=O)[C@@H](C)O)[C@@H](C)CC
B5: Compound 33 (peptide)
peptide: Palmitoyl-HSLIFMAFFSEKKYL-NH2
SMILES: CCCCCCCCCCCCCCCC(=O)N[C@@H](Cc1c[nH]cn1)C(=O)N[C@@H](CO)C(=O)N[C@@H](CC(C)C)C(=O)N[C@H](C(=O)N[C@@H](Cc1ccccc1)C(=O)N[C@@H](CCSC)C(=O)N[C@@H](C)C(=O)N[C@@H](Cc1ccccc1)C(=O)N[C@@H](Cc1ccccc1)C(=O)N[C@@H](CO)C(=O)N[C@@H](CCC(=O)O)C(=O)N[C@@H](CCCCN)C(=O)N[C@@H](CCCCN)C(=O)N[C@@H](Cc1ccc(O)cc1)C(=O)N[C@@H](CC(C)C)C(N)=O)[C@@H](C)CC
B6: Compound 44 (peptide)
peptide: Palmitoyl-NIVRVLATKLRETNAGRSD-NH2
SMILES: CCCCCCCCCCCCCCCC(=O)N[C@@H](CC(N)=O)C(=O)N[C@H](C(=O)N[C@H](C(=O)N[C@@H](CCCNC(=N)N)C(=O)N[C@H](C(=O)N[C@@H](CC(C)C)C(=O)N[C@@H](C)C(=O)N[C@H](C(=O)N[C@@H](CCCCN)C(=O)N[C@@H](CC(C)C)C(=O)N[C@@H](CCCNC(=N)N)C(=O)N[C@@H](CCC(=O)O)C(=O)N[C@H](C(=O)N[C@@H](CC(N)=O)C(=O)N[C@@H](C)C(=O)NCC(=O)N[C@@H](CCCNC(=N)N)C(=O)N[C@@H](CO)C(=O)N[C@@H](CC(=O)O)C(N)=O)[C@@H](C)O)[C@@H](C)O)C(C)C)C(C)C)[C@@H](C)CC
B7: Compound 7 (peptide)
peptide: Palmitoyl-AYFRRLHSTRNYIH-NH2
SMILES: CCCCCCCCCCCCCCCC(=O)N[C@@H](C)C(=O)N[C@@H](Cc1ccc(O)cc1)C(=O)N[C@@H](Cc1ccccc1)C(=O)N[C@@H](CCCNC(=N)N)C(=O)N[C@@H](CCCNC(=N)N)C(=O)N[C@@H](CC(C)C)C(=O)N[C@@H](Cc1c[nH]cn1)C(=O)N[C@@H](CO)C(=O)N[C@H](C(=O)N[C@@H](CCCNC(=N)N)C(=O)N[C@@H](CC(N)=O)C(=O)N[C@@H](Cc1ccc(O)cc1)C(=O)N[C@H](C(=O)N[C@@H](Cc1c[nH]cn1)C(N)=O)[C@@H](C)CC)[C@@H](C)O
B8: Compound 47 (peptide)
peptide: Palmitoyl-KLRETNAGRSDTRQQRKLL-NH2
SMILES: CCCCCCCCCCCCCCCC(=O)N[C@@H](CCCCN)C(=O)N[C@@H](CC(C)C)C(=O)N[C@@H](CCCNC(=N)N)C(=O)N[C@@H](CCC(=O)O)C(=O)N[C@H](C(=O)N[C@@H](CC(N)=O)C(=O)N[C@@H](C)C(=O)NCC(=O)N[C@@H](CCCNC(=N)N)C(=O)N[C@@H](CO)C(=O)N[C@@H](CC(=O)O)C(=O)N[C@H](C(=O)N[C@@H](CCCNC(=N)N)C(=O)N[C@@H](CCC(N)=O)C(=O)N[C@@H](CCC(N)=O)C(=O)N[C@@H](CCCNC(=N)N)C(=O)N[C@@H](CCCCN)C(=O)N[C@@H](CC(C)C)C(=O)N[C@@H](CC(C)C)C(N)=O)[C@@H](C)O)[C@@H](C)O
B9: Compound 48 (peptide)
peptide: Palmitoyl-RETNAGRSDTRQQRKLLKS-NH2
SMILES: CCCCCCCCCCCCCCCC(=O)N[C@@H](CCCNC(=N)N)C(=O)N[C@@H](CCC(=O)O)C(=O)N[C@H](C(=O)N[C@@H](CC(N)=O)C(=O)N[C@@H](C)C(=O)NCC(=O)N[C@@H](CCCNC(=N)N)C(=O)N[C@@H](CO)C(=O)N[C@@H](CC(=O)O)C(=O)N[C@H](C(=O)N[C@@H](CCCNC(=N)N)C(=O)N[C@@H](CCC(N)=O)C(=O)N[C@@H](CCC(N)=O)C(=O)N[C@@H](CCCNC(=N)N)C(=O)N[C@@H](CCCCN)C(=O)N[C@@H](CC(C)C)C(=O)N[C@@H](CC(C)C)C(=O)N[C@@H](CCCCN)C(=O)N[C@@H](CO)C(N)=O)[C@@H](C)O)[C@@H](C)O
B10: Compound 95 (peptide)
peptide: Palmitoyl-AGRSDTRQQYRKLLFS-NH2
SMILES: CCCCCCCCCCCCCCCC(=O)N[C@@H](C)C(=O)NCC(=O)N[C@@H](CCCNC(=N)N)C(=O)N[C@@H](CO)C(=O)N[C@@H](CC(=O)O)C(=O)N[C@H](C(=O)N[C@@H](CCCNC(=N)N)C(=O)N[C@@H](CCC(N)=O)C(=O)N[C@@H](CCC(N)=O)C(=O)N[C@@H](Cc1ccc(O)cc1)C(=O)N[C@@H](CCCNC(=N)N)C(=O)N[C@@H](CCCCN)C(=O)N[C@@H](CC(C)C)C(=O)N[C@@H](CC(C)C)C(=O)N[C@@H](Cc1ccccc1)C(=O)N[C@@H](CO)C(N)=O)[C@@H](C)O
B11: Compound 45 (peptide)
peptide: Palmitoyl-VRVLATKLRETNAGRSDTR-NH2
SMILES: CCCCCCCCCCCCCCCC(=O)N[C@H](C(=O)N[C@@H](CCCNC(=N)N)C(=O)N[C@H](C(=O)N[C@@H](CC(C)C)C(=O)N[C@@H](C)C(=O)N[C@H](C(=O)N[C@@H](CCCCN)C(=O)N[C@@H](CC(C)C)C(=O)N[C@@H](CCCNC(=N)N)C(=O)N[C@@H](CCC(=O)O)C(=O)N[C@H](C(=O)N[C@@H](CC(N)=O)C(=O)N[C@@H](C)C(=O)NCC(=O)N[C@@H](CCCNC(=N)N)C(=O)N[C@@H](CO)C(=O)N[C@@H](CC(=O)O)C(=O)N[C@H](C(=O)N[C@@H](CCCNC(=N)N)C(N)=O)[C@@H](C)O)[C@@H](C)O)[C@@H](C)O)C(C)C)C(C)C
B12: Compound 49 (peptide)
peptide: Palmitoyl-TNAGRSDTRQQRKLLKSTL-NH2
SMILES: CCCCCCCCCCCCCCCC(=O)N[C@H](C(=O)N[C@@H](CC(N)=O)C(=O)N[C@@H](C)C(=O)NCC(=O)N[C@@H](CCCNC(=N)N)C(=O)N[C@@H](CO)C(=O)N[C@@H](CC(=O)O)C(=O)N[C@H](C(=O)N[C@@H](CCCNC(=N)N)C(=O)N[C@@H](CCC(N)=O)C(=O)N[C@@H](CCC(N)=O)C(=O)N[C@@H](CCCNC(=N)N)C(=O)N[C@@H](CCCCN)C(=O)N[C@@H](CC(C)C)C(=O)N[C@@H](CC(C)C)C(=O)N[C@@H](CCCCN)C(=O)N[C@@H](CO)C(=O)N[C@H](C(=O)N[C@@H](CC(C)C)C(N)=O)[C@@H](C)O)[C@@H](C)O)[C@@H](C)O
B13: Compound 46 (peptide)
peptide: Palmitoyl-VLATKLRETNAGRSDTRQQ-NH2
SMILES: CCCCCCCCCCCCCCCC(=O)N[C@H](C(=O)N[C@@H](CC(C)C)C(=O)N[C@@H](C)C(=O)N[C@H](C(=O)N[C@@H](CCCCN)C(=O)N[C@@H](CC(C)C)C(=O)N[C@@H](CCCNC(=N)N)C(=O)N[C@@H](CCC(=O)O)C(=O)N[C@H](C(=O)N[C@@H](CC(N)=O)C(=O)N[C@@H](C)C(=O)NCC(=O)N[C@@H](CCCNC(=N)N)C(=O)N[C@@H](CO)C(=O)N[C@@H](CC(=O)O)C(=O)N[C@H](C(=O)N[C@@H](CCCNC(=N)N)C(=O)N[C@@H](CCC(N)=O)C(=O)N[C@@H](CCC(N)=O)C(N)=O)[C@@H](C)O)[C@@H](C)O)[C@@H](C)O)C(C)C

Molecular target: PTHR1 receptor
Sequence (P25961 whole entry): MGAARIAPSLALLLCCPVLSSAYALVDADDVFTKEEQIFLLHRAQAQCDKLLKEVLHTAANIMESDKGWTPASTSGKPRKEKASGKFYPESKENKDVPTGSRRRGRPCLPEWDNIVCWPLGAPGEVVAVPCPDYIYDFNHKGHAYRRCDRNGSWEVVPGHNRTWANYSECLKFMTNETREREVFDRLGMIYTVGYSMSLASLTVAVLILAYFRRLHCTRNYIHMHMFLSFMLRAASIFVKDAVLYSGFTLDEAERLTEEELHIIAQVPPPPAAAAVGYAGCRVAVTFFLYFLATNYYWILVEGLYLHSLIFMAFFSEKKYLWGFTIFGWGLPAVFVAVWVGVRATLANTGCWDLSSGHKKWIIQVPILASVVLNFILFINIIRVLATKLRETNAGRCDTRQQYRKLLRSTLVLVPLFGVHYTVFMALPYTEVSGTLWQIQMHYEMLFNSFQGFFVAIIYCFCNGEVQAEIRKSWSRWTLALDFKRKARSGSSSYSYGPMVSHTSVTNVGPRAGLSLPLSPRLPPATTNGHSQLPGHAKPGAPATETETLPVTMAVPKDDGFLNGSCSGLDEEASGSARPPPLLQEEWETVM

Binder	Fold Shift of EC50	Inhibition of Maximal Response [%]
B1	1.2 fold	5.9
B2	1.1 fold	12.7
B3	1.3 fold	5.5
B4	1.1 fold	24.5
B5	1.1 fold	27.5
B6	2 fold	-8.3
B7	1.2 fold	36
B8	2.7 fold	8.3
B9	7 fold	-3.3
B10	19 fold	-5.7
B11	1.4 fold	9.1
B12	1.5 fold and 2.3 fold	–
B13	0.9 fold	20.3
